Reference: US20240317834A1, “COMPOSITIONS AND METHODS FOR NEUROLOGICAL DISEASES” (CODA BIOTHERAPEUTICS, INC., priority 2020, published 2024)
“Also recorded” adds a separate entry of the source.

How the values were obtained:
Assay type in all cases: cell-based
[1] = tested on: HEK293T cells; experiment: High throughput electrophysiology (IonFlux automated patch clamp), EC50 of engineered receptors to ligands
Protocol: To confirm the EC50s determined by plate reader as well as develop a better understanding of maximum current flow, the engineered receptors were subjected to high throughput electrophysiology system, as described below. For HEK293T studies, cDNAs encoding ion channels were cloned into pcDNA3.1 using standard recombination techniques. HEK293T cells from Clontech (Lenti-X™ 293T Cell Line) were cultured in DMEM supplemented with 10% FBS and 1% Pen/Strep to 40-50% confluence using standard cell culture protocols, transfected with ion channel plasmids at a concentration of 18 μg per 15 cm dish using Fugene 6, and grown for an additional 24 hours. Cells were then assayed on an electrophysiological system (IonFluxHT and/or Mercury, Fluxion Biosciences) in which dose-response relationships may be assessed through a microfluidics-based platform for establishing whole cell configurations. Ensemble plates were primed with extracellular buffer (140 mM NaCl, 5 mM KCl, 2 mM CaCl2), 1 mM MgCl2, 10 mM HEPES, and 10 mM glucose, pH 7.2 with NaOH, mOsm 310), intracellular buffer (145 mM CsCl, 2 mM CaCl2), 2 mM MgCl2, 10 mM HEPES, and 10 mM EGTA, pH 7.2 with CsOH, mOsm 305), as adapted from Lynagh and Lynch, and test compounds (stocks prepared fresh) diluted in extracellular buffer. Cells were then released from the plate with Accutase, centrifuged, resuspended in extracellular buffer, and loaded into Ensemble plates. Cells were then subjected to a standard protocol for priming, trapping, breaking, and establishing whole cell configuration, with cells held at −60 mV throughout the recording. After recording baseline, progressive doses of test compounds were applied using the IonFlux software to assess dose response relationships. Data were then analyzed off-line using custom Python scripts to convert data to .csv format, re-plot traces, and apply QC measurements to reject unstable recordings (i.e. thresholding based on access resistance and/or standard deviation in baseline, as well as artifact rejection). Peak currents were then calculated, and population data were fit using a 4-parameter logistic equation as described by the Hill Equation. Currents were measured on an automated patch clamp system (Fluxion Biosciences) following 1 second addition of drug and the EC50 values calculated are tabulated below in Table 22 below and Table 21 above (in Example 2).

[2] = tested on: HEK293 cells; experiment: Whole cell manual patch clamp electrophysiology, ligand-induced currents and EC50 in HEK293 cells
Protocol: (§1) Using whole cell manual patch clamp electrophysiology in HEK293 cells, rat DRG neurons and rat hippocampal neurons, the EC50 of the various engineered receptors disclosed herein to Ach and non-native ligands was measured using the Hill equation with peak current measurements from escalating doses of ligand. The rheobase shift was also measured in rat DRG neurons, which reflects the efficacy of the receptors. To calculate the rheobase, first, the amount of current that can produce an action potential was determined. Then the ligand was added, followed by a step wise increase in the current injected up to 700 pA.
For manual patch clamp experiments, Cells plated on coverslips were visualized at 10× and 40× on an inverted fluorescence microscope (Olympus). Recordings were made with an Axopatch 200B amplifier and Digidata 1550B (Molecular Devices) at RT using 3-6 MOhm glass patch electrodes (Sutter, BF150-86-10). Unless otherwise stated, recordings were made in extracellular solution (ECS) containing: 140 mM sodium chloride, 4 mM potassium chloride, 1 mM magnesium chloride, 2 mM calcium chloride, 10 mM HEPES, and 10 mM D-(+)-glucose (pH=7.3 with sodium hydroxide, osmolarity=305−315 mOsm). […] Traces were either analyzed in Clampfit (Molecular Devices) or using custom Python code. […]
For dose-response, ligand-induced currents were recorded in voltage clamp mode. […]

[3] = tested on: rat DRG neurons; experiment: Whole cell manual patch clamp electrophysiology, ligand-induced currents and EC50 in rat DRG neurons
Protocol: as §1
For manual patch clamp experiments, Cells plated on coverslips were visualized at 10× and 40× on an inverted fluorescence microscope (Olympus). Recordings were made with an Axopatch 200B amplifier and Digidata 1550B (Molecular Devices) at RT using 3-6 MOhm glass patch electrodes (Sutter, BF150-86-10). Unless otherwise stated, recordings were made in extracellular solution (ECS) containing: 140 mM sodium chloride, 4 mM potassium chloride, 1 mM magnesium chloride, 2 mM calcium chloride, 10 mM HEPES, and 10 mM D-(+)-glucose (pH=7.3 with sodium hydroxide, osmolarity=305−315 mOsm). An 8-line reservoir (AutoMate Scientific) in combination with an 8-channel zero-dead-volume perfusion pencil (AutoMate Scientific) was used for perfusion. Data was acquired using pClamp software (Molecular Devices). Traces were either analyzed in Clampfit (Molecular Devices) or using custom Python code. Plotting and statistics were performed in GraphPad Prism.
For dose-response, ligand-induced currents were recorded in voltage clamp mode. For HEK cell experiments, recordings took place in the normal ECS with a cesium-based internal solution containing: 140 mM cesium chloride, 5 mM potassium fluoride, 2 mM Calcium chloride, 2 mM magnesium chloride, 10 mM HEPES, and 10 mM EGTA (pH=7.2 with cesium hydroxide, osmolarity=290-295 mOsm). […]

[4] = tested on: rat DRG neurons; experiment: Rheobase shift and evoked action potentials in rat DRG neurons (current clamp)
Outline: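 Rat DRG neurons expressing engineered receptors, whole-cell current clamp at RT. ECS at pH 7.3; K-gluconate internal at pH 7.2. 500 ms steps from −200 to 700 pA with and without ligand. Rheobase taken as the smallest depolarising step that fires an action potential; input resistance from negative steps.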

B1: CODA806: engineered chimeric LGIC receptor, Y115D, L131Q in SEQ ID NO: 33 (protein)
chain: MRCSPGGVWLALAASLLHVSLQGEFQRKLYKELVKNYNPLERPVANDSQPLTVYFSLSLLQIMDVDEKNQVLTTNIWLQMSWTDHYLQWNVSEYPGVKTVRFPDGQIWKPDILLDNSADERFDATFHTNVQVNSSGHCQYLPPGIFKSSCPMDLKNFPMDVQTCKLKFGSWSYGGWSLDLQMQEADISGYIPNGEWDLVGIPGKRSERFYECCKEPYPDVTFTVTMRRRMGYYLIQMYIPSLLIVILSWISFWINMDAAPARVGLGITTVLTMTTQSSGSRASLPKVSYVKAIDIWMAVCLLFVFSALLEYAAVNFVSRQHKELLRFRRKRRHHKSPMLNLFQEDEAGEGRFNFSAYGMGPACLQAKDGISVKGANNSNTTNPPPAPSKSPEEMRKLFIQRAKKIDKISRIGFPMAFLIFNMFYWIIYKIVRREDVHNQ
modifications: synthetic sequence of chimeric LGIC
fold increased potency towards RG-3487 compared with wild type receptor ([1]; ligand RG-3487): over 10 fold
fold reduced potency to acetylcholine compared with wild type receptor ([1]; ligand acetylcholine): over 500 fold
sensitivity to RG-3487 compared with wildtype nAchRa7 receptor [2]: way more sensitive
sensitivity to acetylcholine, current generated ([2]; Ach up to 100 mM, compared with wildtype nAchRa7 receptor, listed as Y115D and L131Q in SEQ ID NO: 33): essentially insensitive; also recorded: almost no current could be generated
chloride current on application of RG-3487 (SA-2) ([3]; cultured adult rat DRG neurons expressing the receptor, not observed in non-transduced cells): generated chloride current in a dose dependent manner
sensitivity to RG-3487 compared with wildtype nAchRa7 receptor ([3]; cultured rat DRG sensory neurons): way more sensitive
sensitivity to acetylcholine ([3]; cultured rat DRG sensory neurons, compared with wildtype nAchRa7 receptor): essentially insensitive
Rheobase Shift; Rat DRG Neurons, Baseline ([4]; Baseline, no ligand): 163 ± 28 pA
Rheobase Shift; Rat DRG Neurons, Facinicline/RG-3487 @ EC90 ([4]; Facinicline/RG-3487 @ EC90): 625 ± 35 pA
effect on current injection evoked action potentials ([4]; RG-3487 (SA-2) 3 μM, transduced rat DRG neurons): reversibly inhibits
increase in the current required to elicit action potentials (rheobase) ([4]; RG-3487 (SA-2) 3 μM, transduced rat DRG neurons, n=7): ~3 ×
effect on evoked action potentials ([4]; acetylcholine 3.0 mM, transduced rat DRG neurons, n=4): no effect
